{
  "source": "IntAct's records for PubMed 22439934",
  "parents": {"B1": {"name": "Zinc finger protein GLI1 (Homo sapiens), P08151 (parent)", "chain": "MFNSMTPPPISSYGEPCCLRPLPSQGAPSVGTEGLSGPPFCHQANLMSGPHSYGPARETNSCTEGPLFSSPRSAVKLTKKRALSISPLSDASLDLQTVIRTSPSSLVAFINSRCTSPGGSYGHLSIGTMSPSLGFPAQMNHQKGPSPSFGVQPCGPHDSARGGMIPHPQSRGPFPTCQLKSELDMLVGKCREEPLEGDMSSPNSTGIQDPLLGMLDGREDLEREEKREPESVYETDCRWDGCSQEFDSQEQLVHHINSEHIHGERKEFVCHWGGCSRELRPFKAQYMLVVHMRRHTGEKPHKCTFEGCRKSYSRLENLKTHLRSHTGEKPYMCEHEGCSKAFSNASDRAKHQNRTHSNEKPYVCKLPGCTKRYTDPSSLRKHVKTVHGPDAHVTKRHRGDGPLPRAPSISTVEPKREREGGPIREESRLTVPEGAMKPQPSPGAQSSCSSDHSPAGSAANTDSGVEMTGNAGGSTEDLSSLDEGPCIAGTGLSTLRRLENLRLDQLHQLRPIGTRGLKLPSLSHTGTTVSRRVGPPVSLERRSSSSSSISSAYTVSRRSSLASPFPPGSPPENGASSLPGLMPAQHYLLRARYASARGGGTSPTAASSLDRIGGLPMPPWRSRAEYPGYNPNAGVTRRASDPAQAADRPAPARVQRFKSLGCVHTPPTVAGGGQNFDPYLPTSVYSPQPPSITENAAMDARGLQEEPEVGTSMVGSGLNPYMDFPPTDTLGYGGPEGAAAEPYGARGPGSLPLGPGPPTNYGPNPCPQQASYPDPTQETWGEFPSHSGLYPGPKALGGTYSQCPRLEHYGQVQVKPEQGCPVGSDSTGLAPCLNAHPSEGPPHPQPLFSHYPQPSPPQYLQSGPYTQPPPDYLPSEPRPCLDFDSPTHSTGQLKAQLVCNYVQSQQELLWEGGGREDAPAQEPSYQSPKFLGGSQVSPSRAKAPVNTYGPGFGPNLPNHKSGSYPTPSPCHENFVVGANRASHRAAAPPRLLPPLPTCYGPLKVGGTNPSCGHPEVGRLGGGPALYPPPEGQVCNPLDSLDLDNTQLDFVAILDEPQGLSPPPSHDQRGSSGHTPPPSGPPNMAVGNMSVLLRSLPGETEFLNSSA"}, "B2": {"name": "Zinc finger protein GLI1 (Homo sapiens), P08151 (parent)", "chain": "B1 chain", "partner": "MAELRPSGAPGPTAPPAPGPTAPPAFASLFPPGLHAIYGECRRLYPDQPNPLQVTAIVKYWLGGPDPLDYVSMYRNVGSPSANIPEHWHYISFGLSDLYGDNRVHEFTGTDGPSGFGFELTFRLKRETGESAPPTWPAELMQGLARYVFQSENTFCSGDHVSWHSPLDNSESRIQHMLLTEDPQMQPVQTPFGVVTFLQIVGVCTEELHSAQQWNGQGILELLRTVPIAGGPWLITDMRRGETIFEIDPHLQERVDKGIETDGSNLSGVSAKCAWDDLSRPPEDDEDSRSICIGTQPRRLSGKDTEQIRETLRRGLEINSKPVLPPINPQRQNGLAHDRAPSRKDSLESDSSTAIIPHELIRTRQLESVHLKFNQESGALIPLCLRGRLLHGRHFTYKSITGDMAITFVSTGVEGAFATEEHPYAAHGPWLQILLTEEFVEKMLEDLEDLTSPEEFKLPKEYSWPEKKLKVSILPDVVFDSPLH"}},
  "data": [
    {"variants_of": "B1", "conditions": "with RPS6KB1, P23443-2", "values": [
      {"variant": "S84A", "effect of a mutation on the interaction": "disrupting interaction"}
    ]},
    {"variants_of": "B2", "conditions": "with sufu_human SUFU", "values": [
      {"variant": "S84E", "effect of a mutation on the interaction": "decreasing interaction"}
    ]}
  ]
}
